We go through one molecule from publication doi:10.1101/2025.08.01.668090, “Target Preference Maps: A machine learning model generalizing transferable drug-receptor interactions and guiding drug discovery” (bioRxiv, 2025).

Where no end group is shown, it is not given here.

The target of the test is T1, N-terminal domain of T. brucei PEX14 (residues 19-84) (T. brucei, UniProt Q38CL4 19-84).
T1 construct: also called N-His-PEX14; source: E. coli BL21(DE3), purified (Ni-NTA, Superdex 75); not shown: His tag, N-terminal, kept
T1 sequence (looked up): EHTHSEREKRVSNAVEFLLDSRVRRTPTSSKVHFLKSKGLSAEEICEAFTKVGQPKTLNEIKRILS
Kind of test: AlphaScreen or HTRF; 3 nM N-His-PEX14 with 10 nM biotinylated PEX5-derived peptide in PBS with 5 mg/mL BSA and 0.01 % (v/v) Tween-20; streptavidin donor beads and nickel chelate acceptor beads, 5 ug/mL each; competition with small-molecule inhibitors (600-0 uM), 5% DMSO. The following applies: both partners purified.

B1: biotinylated PEX5-derived peptide (ALSENWAQEFLA) (peptide)
peptide: ALSENWAQEFLA
modifications: also: biotinylated (position not given here)
notes: PEX5-derived peptide with a WxxxF motif; Held on streptavidin donor beads by its biotin; The same peptide was used with PEX14 of all three species
B1: the binding result was “binds”.
